± gives the uncertainty stated by the source.

The data set in a line: self-splicing fitness, log relative to wild type (ln ratio); higher = more splicing; Tetrahymena group I intron in knt gene, E. coli kanamycin selection, DiMSum; sequences stand for … in CUCUCU…GGAGGGAAAAGUUAUCAGGCAUGCACCUGGUAGCUAGUCUUUAAACCAAUAGAUUGCAUCGGUUUAAAAGGCAAGACCGUCAAAUUGCGGGAAAGGGGUCAACAGCCGUUCAGUACCAAGUCUCAGGGGAAACUUUGAGAUGGCCUUGCAAAGGGUAUGGUAAUAAGCUGACGGACAUGGUCCUAACCACGCAGCCAAGUCCUAAGUCAACAGAUCUUCUGUUGAUAUGGAUGCAGUUCACAGACUAAAUGUCGGUCGGGGAAGAUGUAUUCUUCUCAUAAGAUAUAGUCGGACCUCUCCUUAAUGGGAGCUAGCGGAUGAAGUGAUGCAACACUGGAGCCGCUGGGAACUAAUUUGUAUGCGAAAGUAUAUUGAUUAGUUUUGGAGUACUCGUGGUCG
In a few lines: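 Pooled colonies went to amplicon sequencing on an Illumina HiSeq 2500 after six replicate transformations. The plates were LB agar with 100 μg/mL carbenicillin, 50 μM IPTG and 0.2% rhamnose, with or without 25 μg/mL kanamycin, incubated overnight at 37°C or 30°C. The E. coli BL21(DE3) library had all eight P1ex-region intron nucleotides randomised, the intron placed in the knt kanamycin-resistance gene on pET-22b(+). DiMSum fitness is the error-weighted combination of replicate fold changes, kanamycin against none, normalised to wild type.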

On to CCAGAGCAAUAUUACGAUUU, for which the “self-splicing fitness (ln)” value was -3.77 ± 0.35 (30 °C) and -3.59 ± 0.39 (37 °C).
GUGAAGCAAUAUUACGCUUG: the “self-splicing fitness (ln)” value reads like this: (30 °C) -1.44 ± 0.11; (37 °C) -0.0927 ± 0.098.
With GCAAAGCAAUAUUACGCGCA, the “self-splicing fitness (ln)” value was -0.918 ± 0.096 (30 °C) and -0.0967 ± 0.092 (37 °C).
Regarding UUGAAGCAAUAUUACGAAUA, the “self-splicing fitness (ln)” value (30 °C) was -0.868 ± 0.12 and the “self-splicing fitness (ln)” value (37 °C) was -1.13 ± 0.15.
The like results for CCGUAGCAAUAUUACGGAAA were, in that order, -3.22 ± 0.42 and -2.52 ± 0.46.
Regarding UCUAAGCAAUAUUACGAGCG, the “self-splicing fitness (ln)” value by setting is: (30 °C) -1.19 ± 0.1; (37 °C) -0.708 ± 0.12.
Take ACAUAGCAAUAUUACGUUUC: the “self-splicing fitness (ln)” value (30 °C) was -3.55 ± 0.23 and the “self-splicing fitness (ln)” value (37 °C) is -2.84 ± 0.3.
Take UUAAAGCAAUAUUACGCUCU: the “self-splicing fitness (ln)” value is, setting by setting: (30 °C) -0.795 ± 0.15; (37 °C) 0.21 ± 0.14.
As for AGCUAGCAAUAUUACGGGUU, the “self-splicing fitness (ln)” value (30 °C) is -2.74 ± 0.14 and the “self-splicing fitness (ln)” value (37 °C) is -2.12 ± 0.18.
The like results for UAACAGCAAUAUUACGUUCA were, in that order, -0.481 ± 0.049 and 0.0141 ± 0.07.
In the case of CAGGAGCAAUAUUACGACUC, the “self-splicing fitness (ln)” value (30 °C) was -2.74 ± 0.11 and the “self-splicing fitness (ln)” value (37 °C) was -2.14 ± 0.15.
In the same order, the values of UUAAAGCAAUAUUACGGCUC are -0.0999 ± 0.18 and 0.714 ± 0.23.
In the case of AACCAGCAAUAUUACGAGAG, the “self-splicing fitness (ln)” value runs as follows: (30 °C) -3.44 ± 0.15; (37 °C) -2.06 ± 0.12.
The like results for GGUGAGCAAUAUUACGUCUA were, in that order, -1.91 ± 0.16 and -1.42 ± 0.15.
The like results for CAAGAGCAAUAUUACGAAUA were, in that order, -2.52 ± 0.34 and -2.28 ± 0.36.
In the same order, the values of UUACAGCAAUAUUACGUAUG are -0.997 ± 0.054 and -0.53 ± 0.068.
On to GGGUAGCAAUAUUACGGCAA, for which the “self-splicing fitness (ln)” value is, setting by setting: (30 °C) -0.369 ± 0.24; (37 °C) -0.33 ± 0.28.
With CAUGAGCAAUAUUACGAUCG, the “self-splicing fitness (ln)” value (30 °C) is -0.0708 ± 0.12 and the “self-splicing fitness (ln)” value (37 °C) is -0.399 ± 0.14.
In the same order, the values of UAACAGCAAUAUUACGGUAU are -3.01 ± 0.11 and -2.06 ± 0.17.
The like results for CUCAAGCAAUAUUACGCCAA were, in that order, -3.55 ± 0.33 and -2.37 ± 0.31.
In the same order, the values of UUCGAGCAAUAUUACGCAAA are -0.773 ± 0.28 and -1.92 ± 0.26.
In the case of GUCGAGCAAUAUUACGCCAA, the “self-splicing fitness (ln)” value is -2.68 ± 0.35 (30 °C) and -2.6 ± 0.48 (37 °C).
Take AGACAGCAAUAUUACGUUGU: the “self-splicing fitness (ln)” value (30 °C) is -3.02 ± 0.13 and the “self-splicing fitness (ln)” value (37 °C) is -2.21 ± 0.12.
On to CUCAAGCAAUAUUACGGAGG, for which the “self-splicing fitness (ln)” value (30 °C) was -1.53 ± 0.098 and the “self-splicing fitness (ln)” value (37 °C) was -0.576 ± 0.087.
The like results for GGUAAGCAAUAUUACGCAUA were, in that order, -1.19 ± 0.15 and 0.0315 ± 0.17.
The like results for UUCUAGCAAUAUUACGACUG were, in that order, -1.64 ± 0.17 and -0.702 ± 0.2.
Consider ACGAAGCAAUAUUACGAUUU, for which the “self-splicing fitness (ln)” value is, setting by setting: (30 °C) -1.28 ± 0.094; (37 °C) -0.317 ± 0.1.
In the same order, the values of UACUAGCAAUAUUACGACGG are -0.517 ± 0.12 and -0.301 ± 0.15.
With GCGUAGCAAUAUUACGCGCG, the “self-splicing fitness (ln)” value was -3.2 ± 0.26 (30 °C) and -2.42 ± 0.31 (37 °C).
With AUCUAGCAAUAUUACGGCAG, the “self-splicing fitness (ln)” value by setting is: (30 °C) -2.04 ± 0.17; (37 °C) -0.157 ± 0.16.
In the same order, the values of AUAUAGCAAUAUUACGAAUU are -2.52 ± 0.16 and -0.909 ± 0.14.
In the same order, the values of GGUUAGCAAUAUUACGUCGA are -1.43 ± 0.14 and -0.492 ± 0.14.
In the same order, the values of GCCUAGCAAUAUUACGGUGC are -2.59 ± 0.15 and -1.48 ± 0.14.

The values are drawn from the supplement of paper PMC7877785.
